Patent US7537795B2, “Transdermal drug delivery devices having coated microprotrusions” (Alza Corporation, priority 2000, dated 2009)
One block for each molecule: values may come before it.

Legend:
[1] = Kinetics of drug absorption from hGH tip-coated microprotrusion array systems, plasma hGH by ELISA; format: in vivo, hairless guinea pigs
Procedure: However, on the microprotrusion itself, the coating was found unevenly distributed.
Systems remained on the skin for 5 seconds (n=3) or 5 minutes (n=5). A group of animals (n=5) received a subcutaneous injection of 10 μg hGH. Blood samples were collected at time intervals for plasma hGH determination by ELISA. The hGH dose delivered was extrapolated based on an area under the curve (AUC) calculation compared to IV administration of hGH. […] On average, 5 μg of hGH was delivered in each animal, which accounts for approximately 50% of the coated dose.

[2] = guinea pig, in vivo
[3] = Ovalbumin delivery from microprotrusion systems coated with 200, 50 and 10 mg/ml solutions; format: in vivo, hairless guinea pigs; conditions: coating solutions 200, 50 and 10 mg/ml, device removed immediately after application
Procedure: An experiment similar to that described in Example 1 was performed in the HGPs using the identical microprotrusion systems which were coated with aqueous ovalbumin solutions having ovalbumin concentrations of 200, 50, and 10 mg/ml ovalbumin. In all groups the microprotrusion device was removed immediately after application. Application and analysis were performed identically to that described in Example 1.

[4] = Ovalbumin absorption into the skin from dip-coated microprotrusion devices, skin biopsy fluorimetry; format: in vivo, hairless guinea pigs; conditions: dip-coated device, 8 mm skin biopsy
Procedure: The feasibility of coating the microprotrusion devices with ovalbumin was evaluated. A coating solution comprising 200 mg/ml of fluorescein-tagged ovalbumin in water was prepared.
Microprotrusion application was performed using a spring loaded applicator which impacted the system against the animal's skin. […] The average total amount of ovalbumin delivered into the skin (Mavg) during these time intervals was determined by taking an 8 mm skin biopsy at the application site. The skin biopsy sample was then dissolved in hyamine hydroxide (diisobutylcresoxyethoxyethyl) dimethyl) benzylammonium hydroxide, 1 M in ethanol, sold by J. T. Baker (NJ, USA) and the amount of ovalbumin present was determined by fluorimetry. […] Although ovalbumin is not a pharmacological agent used in therapeutics, it is a good model for large potent pharmacologically active agents such as follicle stimulating hormone and erythropoietin.

[5] = Ovalbumin delivery from tip-coated microprotrusion array systems, skin biopsy fluorimetry; format: in vivo, euthanized hairless guinea pigs
Procedure: The coating was limited to the first 150 μm of the microprojection.
The applied systems comprised a coated microprotrusion array, adhered to the center of a LDPE backing with an adhesive (7 cm^2 disc). […] At the end of the wearing time, the system was removed and the skin wiped clean of any residual drug. The total amount of ovalbumin delivered in the skin during these time intervals was determined by dissolving a 8 mm skin biopsy in hyamine hydroxide (10% in methanol). Quantitation was performed by fluorimetry. […] Close to 100% of the dose had been delivered after 1 hour application time (solid bar).

Molecule: hGH: Human growth hormone, model for cytokines, particularly interferon
bioavailability ([1]; subcutaneous administration of 10 μg hGH): 65%
hGH delivery, 5 seconds versus 5 minutes wearing times ([1]; tip-coated array): the same
hGH delivered as share of the coated dose ([1]; tip-coated array, 5 seconds or 5 minutes wear): approximately 50%
hGH delivered in each animal, on average ([1]; tip-coated array, 5 seconds or 5 minutes wear, extrapolated from AUC compared to IV): 5 µg

amount of desmopressin delivered versus Group B [2]: did not increase significantly
average delivery of desmopressin [2]: about 5 μg
average desmopressin delivered [2]: 18 µg
Molecule: NC(=O)CC[C@@H]1NC(=O)[C@H](Cc2ccccc2)NC(=O)[C@H](Cc2ccc(O)cc2)NC(=O)CCSSC[C@@H](C(=O)N2CCC[C@H]2C(=O)N[C@H](CCCN=C(N)N)C(=O)NCC(N)=O)NC(=O)[C@H](CC(N)=O)NC1=O [desmopressin]
Additional drug absorbed after the first two hours [2]: no additional amount of drug was absorbed

B1: ovalbumin: a 45,000 Dalton polypeptide containing an oligosaccharide side chain; model for large pharmacological agents; fluorescein/FITC-tagged in delivery studies (protein, UniProt P01012 2-386, looked up)
Ovalbumin: GSIGAASMEFCFDVFKELKVHHANENIFYCPIAIMSALAMVYLGAKDSTRTQINKVVRFDKLPGFGDSIEAQCGTSVNVHSSLRDILNQITKPNDVYSFSLASRLYAEERYPILPEYLQCVKELYRGGLEPINFQTAADQARELINSWVESQTNGIIRNVLQPSSVDSQTAMVLVNAIVFKGLWEKAFKDEDTQAMPFRVTEQESKPVQMMYQIGLFRVASMASEKMKILELPFASGTMSMLVLLPDEVSGLEQLESIINFEKLTEWTSSNVMEERKIKVYLPRMKMEEKYNLTSVLMAMGITDVFSSSANLSGISSAESLKISQAVHAAHAEINEAGREVVGSAEAGVDAASVSEEFRADHPFLFCIKHIATNAVLFFGRCVSP
modifications: fluorescein/FITC label
notes: a 45,000 Dalton polypeptide containing an oligosaccharide side chain; model for large pharmacological agents; fluorescein/FITC-tagged in delivery studies
delivery of ovalbumin as a function of amount coated [3]: could be controlled by controlling the amounts coated on the microprotrusions
ovalbumin delivered intracutaneously ([4]; 5 second piercing): about 25 μg
ovalbumin delivered intracutaneously ([4]; 1 hour application period): up to 80 μg
ovalbumin dose delivered ([5]; 5 seconds wearing time): more than 80%
ovalbumin dose delivered ([5]; 1 hour application time): ~100%
